These are literature values, as cited in publication PMC6963985.

In general, Kd refers to the free concentration of one partner at which half of the binding sites on the other are occupied at equilibrium, for simple one-to-one binding.

For the data set, the target named is CTLA-4 (Homo sapiens) (UniProt P16410).
UniProt P16410, sequence (P16410 36-161): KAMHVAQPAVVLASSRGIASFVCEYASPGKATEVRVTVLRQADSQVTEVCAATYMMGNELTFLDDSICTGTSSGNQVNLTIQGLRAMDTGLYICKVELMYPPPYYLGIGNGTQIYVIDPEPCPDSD

For the substance Tremelimumab, the Kd was 5.9 nM.
